± gives the uncertainty stated by the source.
Test: amyloid nucleation score (Sup35N fusion, yeast selection) (log enrichment); library NNK2; higher = more nucleation; inactive = no reads after selection
In short: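 The nucleation score equals the log enrichment of output over input reads from DiMSum, centred on the mode score of non-aggregating sequences. It was computed only for sequences with 100 or more input reads. The reads came from Illumina sequencing of plasmid inserts from psi-negative yeast expressing Sup35N fused to peptides of 20 random codons, induced with 100 μM copper sulfate for 24 hours and grown 7 days at 30°C without adenine and uracil.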

Substance	amyloid nucleation score
MNASDIKTFKL	-0.531 ± 1.1
MNCVGG	-0.389 ± 0.61
MNFESNFRNTKCEIFIVIYN	4.62 ± 0.11
MNFWMILVKSETYFNDRRPY	7.152 ± 0.061
MNGCTTANGIVDTRSNAFTC	1.87 ± 0.097
MNGIFVNLKSKIRTFCRSVY	2.67 ± 0.11
MNIAVIHNMVQGSKAPDYHF	4.67 ± 0.075
MNIVVYVHLGVSAQVSMAHR	8.407 ± 0.041
MNVGCIDQFYCMWRCNIFWP	7.678 ± 0.055
MNVGTFSLRFLSFDLL	-0.054 ± 1.1
MNWTSVHLDDWSRILIHTYC	inactive
MPSRYMIVMFNLTLPRRGVG	-0.226 ± 0.55
MQSINVNNVKTSTRPFFVNR	inactive
MQTICSN	-1.13 ± 1
MRCAPLMHHLARPASFRI	2.08 ± 0.096
MRCKRYECSGDSWWGYSFAK	0.131 ± 0.27
MRCNFADSAYRMISMTV	0.412 ± 0.55
MRMVA	-0.723 ± 0.49
MRNPYFRHCRFITRRVVFID	inactive
MRPMIFPCYAMSSVSMLTSR	0.72 ± 0.27
MRTIGGD	0.348 ± 0.38
MRWRMCIIFNLVISY	0.218 ± 1.1
MRYEFVLFLRFRGSDTKGRD	-0.124 ± 0.33
MRYRIICNFCHDVRKESLLK	-0.246 ± 0.8
MSAPRMEQSWEHQQQRDHTC	0.661 ± 0.33

Substance	amyloid nucleation score
MSFNQLIMFETRSSTPYRWR	5.71 ± 0.078
MSGSDNLILYSSV	-0.212 ± 0.45
MSMLMRVRCEISVTTML	4.498 ± 0.031
MSNRVCCNYVGSHVRYCVSK	4.913 ± 0.048
MSQFGHVCSRAYFLRDDQAN	inactive
MSRKFMGVFCTSSRGSLPRG	0.653 ± 0.47
MSSIDFSFCTSSLRTYSIVR	0.155 ± 1.1
MSTIEYSDGVEGRHILCLIA	1.2 ± 0.35
MSVKSEAGRRSLRMNSKTSR	0.078 ± 0.22
MSVLRSG	0.526 ± 0.66
MSYVLMVFASPIMYVTHPIA	1.89 ± 0.2
MTFAT	-1.51 ± 1.1
MTIDCFTFRDQGVYGTLMLK	3.33 ± 0.043
MTIQSYGVILLLISVYWLSF	0.584 ± 0.66
MTIVCRWR	3.04 ± 0.16
MTIVVSDCTSVSDVFIGLGN	2.29 ± 0.076
MTMGEKTLCPWNHSDLAPSR	0.966 ± 0.49
MTNMT	1.18 ± 0.61
MTRYDDRFVQNRSSWLDNFD	-0.909 ± 0.48
MTSFGYHMNLCH	0.072 ± 1.1
MTWGSISNNLVTRTTPTYIC	0.178 ± 0.56
MVAGDKRDGG	2.39 ± 0.07
MVGNWDSV	-0.011 ± 0.49
MVHLRGIDVMSILDSYCESG	0.544 ± 0.52
MVHTKYPLWSNSRVLWDSVT	0.397 ± 0.64

Substance	amyloid nucleation score
MVMANHRSYRY	7.663 ± 0.026
MVQPS	0.462 ± 0.5
MVRDIEFTLKGRTMG	-0.032 ± 1.1
MVSVKSCYYVSVSVLSRFHF	0.065 ± 0.36
MVWSSRDS	-0.548 ± 0.54
MVYGLDFIGASL	-0.016 ± 0.5
MWQSMLSAVGSVNVMSQLGT	1.53 ± 0.33
MWRVWECGGRRDNLVRCPSR	0.774 ± 0.51
MWWYSFPLGLLWVFNS	inactive
MYCLHCTTSCWSRLRLVNNF	2.98 ± 0.16
MYIGVL	-0.065 ± 0.45
MYNRSRLSFA	-0.666 ± 1
MYSLR	inactive
MYTYLINVNVSDAFTLYGLE	4.43 ± 0.056
MYVDLWFGTYRNS	0.532 ± 0.54
MYVFMVSFYMGFCKYQNSVI	inactive
NACYRFILISSMVRLSFSVW	0.389 ± 0.8
NAERSESLYNYKMAGPYGEG	-0.661 ± 1.1
NALGRMCGSWRLVIHISDWW	0.236 ± 0.23
NASIQR	0.564 ± 0.36
NATLNNVERFRAFRGTFLDY	inactive
NCEVFNGDALWRSFTGRYLM	0.042 ± 1.1
NCLLVLHFG	6.91 ± 0.073
NCLMLVGNIFWSEESPRLAM	8.041 ± 0.068
NCNFSLEGHYCTFIKFHWTV	3.23 ± 0.097

Substance	amyloid nucleation score
NCRLKLPSP	3.69 ± 0.05
NCSHGLHLNVFNLVPYKSLI	4.9 ± 0.096
NCSLCFENGMAYFCILIEGV	5.645 ± 0.043
NDFFIFSQEYPYKRMFLQLL	-1.35 ± 0.53
NDGAIGIVAPGEHLLVRDVK	-0.573 ± 0.41
NDNKRYIHYPFLMGFTVSYL	-0.401 ± 0.6
NEADE	-0.119 ± 0.46
NEIQANNCGPKILKLYQNMR	0.579 ± 0.8
NFCSMRSKVTCNSDDKFWNH	-1.13 ± 1.1
NFDVNSRWDTRTCFLSWLKQ	inactive
NFGADVDRFNRVEGSSDFHG	0.285 ± 0.54
NFHLSVRSDSYVL	3.14 ± 0.12
NFKYHCRYWFFVFAKFKFHL	-1.42 ± 0.75
NFMYRSSMFMHL	4.74 ± 0.074
NFPMSSFKEEIWLRTRVPLC	0.691 ± 0.66
NGGINNSWWGLIFLNLWPTI	-0.592 ± 0.79
NGLESYDFTQLY	-0.667 ± 0.64
NGLSSSTWGPWMYCWCVNMV	8.751 ± 0.057
NGQFGTSHGMVGTGVSLRG	-0.012 ± 0.65
NGSYGSYMHFPEPIMSIFMY	inactive
NGTFSCGERVIEINDDSLSD	0.486 ± 0.8
NGTINALFSDEAGWSSCGYL	0.2 ± 0.34
NGVCQNCR	inactive
NGVRLNLVNFSFGLDVMPFR	7.642 ± 0.071
NHITMFDRVSYYVKLKHYVA	0.452 ± 0.37

Substance	amyloid nucleation score
NHKAIYLRPSSTNPEILSRA	1.15 ± 0.47
NHRETVFVVIASRSWHARFG	-0.19 ± 1
NHVCRIVTMFGVPSRSN	inactive
NIAKSEILRIWNWW	inactive
NIDICDVWFMNCLYIILVAQ	5.192 ± 0.031
NIDSELSCDYD	-0.784 ± 0.76
NIFEYPGYRRYVCCVGWV	4.551 ± 0.044
NIKSYVGYRNHFRVSLV	inactive
NILAMKLFVNKFHVIFDEFL	0.097 ± 1.1
NILTRYS	-0.013 ± 0.31
NIRQVIKGVSCLHIMWEKWR	-0.304 ± 0.48
NIRSYPVNYKHHFT	0.19 ± 0.27
NIRVNDCVRHPSGDVQARVS	-0.014 ± 0.35
NITLYFKRSLDLFGEPMWTQ	1.53 ± 0.16
NIVKGFRCLCVNLTDFRETR	4.09 ± 0.12
NKCEIKLRKWQSSP	-0.337 ± 0.34
NKDRGGRYSICRNYANPFVA	0.034 ± 0.29
NKLTV	-0.381 ± 0.79
NKRELNIVV	0.701 ± 0.43
NKSVQARDPTV	inactive
NKVSEFYDGVHFC	-0.235 ± 1.1
NLAFTNALVLLWNSVYLKDE	8.274 ± 0.058
NLASRALIKLFH	-0.538 ± 0.48
NLCRQVACTLLSLPSDTPRF	8.842 ± 0.03
NLGDVSYTSSFG	1.31 ± 0.43

Substance	amyloid nucleation score
NLKIMLIRTIVYHDWSTMHL	7.161 ± 0.061
NLMGFCYVSAEWVFGGRPGY	1.97 ± 0.14
NLQLTFGS	-0.202 ± 0.21
NLRMVG	0.182 ± 1.1
NLRSYIRGSLFGFCSRLWEN	3.09 ± 0.08
NLSCNLFVSFWYGW	4.67 ± 0.068
NLSRRCKIADWSIHCATIHE	-0.235 ± 1.1
NLWFSHDITYHYTYFDRSRA	4.52 ± 0.087
NLWVCFWSDSCFT	8.089 ± 0.045
NLYSLPQEDRSLNDEKGG	0.121 ± 0.49
NLYTYAVKAVSYSMTGVFIS	-0.114 ± 1
NMFRIVASTY	0.598 ± 0.47
NMNLVILDTHN	2.86 ± 0.13
NMRHI	0.75 ± 0.41
NMRRYLIDMKGVEVLGFMCS	inactive
NMYLDVRRSDGICGHIY	-1.28 ± 1
NNATLGQAFSRQ	0.542 ± 0.17
NNGPSKT	0.51 ± 0.54
NNKFLQVSYS	-0.409 ± 0.78
NNLGKEWKNIWGECLRRVAP	4.48 ± 0.079
NNLTKWLNHWRYFRFSSALE	-0.178 ± 0.5
NNMPFCNYEAFNFYNGMSAF	-1.55 ± 1.1
NNRHLSPVVRSY	inactive
NNRSGYEYVIEFRLTSAVHF	2.1 ± 0.13
NNSMLLSDTLLGYRRTGLDC	-0.176 ± 0.3

Substance	amyloid nucleation score
NNTNIECSWWIYVWSRHNNR	5.99 ± 0.061
NNWYNTYYKSIKASQPRSSR	-0.797 ± 1.1
NPLYEGSFFWGWKFIDFRQH	0.131 ± 1
NPSCTRKVLVYSY	0.359 ± 0.43
NPVRISL	0.214 ± 0.28
NPYKLTLPLTSLLLYSIPRA	-0.127 ± 1.1
NPYTCMKTHYNRRNI	3.41 ± 0.15
NQLDTNSIMLVFLSNMMLGV	3.81 ± 0.056
NQNCLHTTCVCSRIVSDAAV	6.483 ± 0.038
NQSESFHGLDHFTRNHGGCR	inactive
NQTGSRYRVFGNFHVTACFV	0.838 ± 0.18
NQYLSMRTAHSGEVYQPLVF	0.859 ± 0.8
NRDVVKKLPGPSSFVMT	-0.552 ± 0.44
NRFMN	-0.3 ± 0.46
NRFYIWRSDRNYTLVACRSK	-0.237 ± 0.79
NRGSGSAGMVSLLNNSWRWA	1.48 ± 0.43
NRGWSFKLQWHYSLSYTS	4 ± 0.084
NRKEQVVPLHVRSPI	1.13 ± 0.17
NRLERMLLTDTDVSEKGSLG	-0.204 ± 0.54
NRLYSNRGQLNSLCISWFSG	inactive
NRRLRHIWRNNSLTSKN	-0.279 ± 0.25
NRVVHFISIFGFMNS	3.6 ± 0.098

Reference: the supplement of paper PMC12042874
